What follows are sequences tested on Escherichia coli TOP10 (assay: shrunken log2 fold change of peptide-encoding DNA abundance (4.5 h post-induction vs induction); higher = less antimicrobial activity (less host growth inhibition)). Conditions: time post-induction: 4.5 h; library: site-saturation at positions 5, 18, 19, 20.
With RRIRARPPRLPRPRPRPKGSPRP the “shrunken log2 fold change” value was 0.199. In the case of RRIRCRPPRLPRPRPRPRILPRP, the “shrunken log2 fold change” value is reported as -0.567. RRIRPRPPRLPRPRPRPSPKPRP was tested, and the “shrunken log2 fold change” value was 0.218. RRIRGRPPRLPRPRPRPDLFPRP was tested, and the “shrunken log2 fold change” value was 0.723. In the case of RRIRPRPPRLPRPRPRPWRLPRP, the “shrunken log2 fold change” value is reported as 0.0836. RRIRTRPPRLPRPRPRPMCNPRP was tested, and the “shrunken log2 fold change” value was -0.249. For RRIRVRPPRLPRPRPRPQCMPRP, the “shrunken log2 fold change” value was -0.528. In the case of RRIRSRPPRLPRPRPRPERTPRP, the “shrunken log2 fold change” value is reported as 0.0493. RRIRDRPPRLPRPRPRPTRAPRP was tested, and the “shrunken log2 fold change” value was 0.889. With RRIRERPPRLPRPRPRPDGGPRP the “shrunken log2 fold change” value was 0.0135. RRIRRRPPRLPRPRPRPASHPRP was tested, and the “shrunken log2 fold change” value was 0.4. RRIRQRPPRLPRPRPRPVVHPRP was tested, and the “shrunken log2 fold change” value was -0.164. For RRIRDRPPRLPRPRPRPMKIPRP, the “shrunken log2 fold change” value was -0.0804. With RRIRSRPPRLPRPRPRPGWEPRP the “shrunken log2 fold change” value was -0.0365. With RRIRGRPPRLPRPRPRPMFEPRP the “shrunken log2 fold change” value was 0.688. RRIRRRPPRLPRPRPRPTKWPRP was tested, and the “shrunken log2 fold change” value was 0.0371. For RRIRARPPRLPRPRPRPPLVPRP, the “shrunken log2 fold change” value was 0.626. In the case of RRIRHRPPRLPRPRPRPCAKPRP, the “shrunken log2 fold change” value is reported as -0.251. In the case of RRIRHRPPRLPRPRPRPRVGPRP, the “shrunken log2 fold change” value is reported as 0.371. With RRIRYRPPRLPRPRPRPIRLPRP the “shrunken log2 fold change” value was 0.0224. In the case of RRIRSRPPRLPRPRPRPHNTPRP, the “shrunken log2 fold change” value is reported as -0.337. For RRIRERPPRLPRPRPRPLGPPRP, the “shrunken log2 fold change” value was 0.099. RRIRVRPPRLPRPRPRPMFCPRP was tested, and the “shrunken log2 fold change” value was -0.0375. For RRIRIRPPRLPRPRPRPMGNPRP, the “shrunken log2 fold change” value was 0.0077. With RRIRRRPPRLPRPRPRPFYHPRP the “shrunken log2 fold change” value was 0.0115. For RRIRERPPRLPRPRPRPKYAPRP, the “shrunken log2 fold change” value was 0.0159. In the case of RRIRCRPPRLPRPRPRPFNDPRP, the “shrunken log2 fold change” value is reported as 0.0223. RRIRARPPRLPRPRPRPIWVPRP was tested, and the “shrunken log2 fold change” value was 0.226. For RRIRVRPPRLPRPRPRPHIKPRP, the “shrunken log2 fold change” value was -0.389. In the case of RRIRPRPPRLPRPRPRPNYQPRP, the “shrunken log2 fold change” value is reported as -0.293. In the case of RRIRLRPPRLPRPRPRPWQAPRP, the “shrunken log2 fold change” value is reported as 0.226. RRIRERPPRLPRPRPRPKAIPRP was tested, and the “shrunken log2 fold change” value was -0.0487. For RRIRERPPRLPRPRPRPGREPRP, the “shrunken log2 fold change” value was 0.241. With RRIRWRPPRLPRPRPRPCMGPRP the “shrunken log2 fold change” value was -0.0956. With RRIRYRPPRLPRPRPRPVCIPRP the “shrunken log2 fold change” value was -1.24. In the case of RRIRRRPPRLPRPRPRPAVWPRP, the “shrunken log2 fold change” value is reported as 0.399. With RRIRCRPPRLPRPRPRPCDDPRP the “shrunken log2 fold change” value was 0.0119. RRIRGRPPRLPRPRPRPVWHPRP was tested, and the “shrunken log2 fold change” value was 0.228. With RRIRHRPPRLPRPRPRPSGGPRP the “shrunken log2 fold change” value was -0.0256. RRIRHRPPRLPRPRPRPSCFPRP was tested, and the “shrunken log2 fold change” value was -0.257. RRIRERPPRLPRPRPRPNETPRP was tested, and the “shrunken log2 fold change” value was -0.0321. In the case of RRIRGRPPRLPRPRPRPTVWPRP, the “shrunken log2 fold change” value is reported as 1.32. With RRIRQRPPRLPRPRPRPDTMPRP the “shrunken log2 fold change” value was 0.0515. For RRIRFRPPRLPRPRPRPNWMPRP, the “shrunken log2 fold change” value was -0.0436. For RRIRPRPPRLPRPRPRPVALPRP, the “shrunken log2 fold change” value was 0.0375. RRIRHRPPRLPRPRPRPPYQPRP was tested, and the “shrunken log2 fold change” value was -0.028. For RRIRKRPPRLPRPRPRPHDFPRP, the “shrunken log2 fold change” value was -0.0488. In the case of RRIRLRPPRLPRPRPRPKCRPRP, the “shrunken log2 fold change” value is reported as 0.147. In the case of RRIRNRPPRLPRPRPRPGAWPRP, the “shrunken log2 fold change” value is reported as 0.0927. For RRIRGRPPRLPRPRPRPANNPRP, the “shrunken log2 fold change” value was 0.138. With RRIRPRPPRLPRPRPRPMYKPRP the “shrunken log2 fold change” value was -0.323. RRIRARPPRLPRPRPRPNHIPRP was tested, and the “shrunken log2 fold change” value was -0.8. RRIRMRPPRLPRPRPRPCVWPRP was tested, and the “shrunken log2 fold change” value was 0.245. For RRIRERPPRLPRPRPRPASIPRP, the “shrunken log2 fold change” value was -0.327. In the case of RRIRTRPPRLPRPRPRPRTEPRP, the “shrunken log2 fold change” value is reported as 0.153. RRIRCRPPRLPRPRPRPHRSPRP was tested, and the “shrunken log2 fold change” value was -0.114. With RRIRGRPPRLPRPRPRPAKCPRP the “shrunken log2 fold change” value was -0.0198. RRIRFRPPRLPRPRPRPHAIPRP was tested, and the “shrunken log2 fold change” value was 0.00598. For RRIRPRPPRLPRPRPRPDTHPRP, the “shrunken log2 fold change” value was -0.119. With RRIRWRPPRLPRPRPRPFYNPRP the “shrunken log2 fold change” value was -0.242. For RRIRFRPPRLPRPRPRPAEKPRP, the “shrunken log2 fold change” value was -0.0885. For RRIRYRPPRLPRPRPRPYHYPRP, the “shrunken log2 fold change” value was -0.556. For RRIRRRPPRLPRPRPRPHKLPRP, the “shrunken log2 fold change” value was 0.022. RRIRQRPPRLPRPRPRPPRHPRP was tested, and the “shrunken log2 fold change” value was 0.644. For RRIRWRPPRLPRPRPRPEVNPRP, the “shrunken log2 fold change” value was 0.321. RRIRCRPPRLPRPRPRPAITPRP was tested, and the “shrunken log2 fold change” value was -0.372. For RRIRWRPPRLPRPRPRPCPRPRP, the “shrunken log2 fold change” value was -0.0457. For RRIRQRPPRLPRPRPRPGFGPRP, the “shrunken log2 fold change” value was 0.245. RRIRGRPPRLPRPRPRPYKNPRP was tested, and the “shrunken log2 fold change” value was -0.22. RRIRIRPPRLPRPRPRPTYPPRP was tested, and the “shrunken log2 fold change” value was -0.592. With RRIRYRPPRLPRPRPRPDPKPRP the “shrunken log2 fold change” value was -0.22. In the case of RRIRPRPPRLPRPRPRPTRIPRP, the “shrunken log2 fold change” value is reported as 0.105. For RRIRNRPPRLPRPRPRPRNTPRP, the “shrunken log2 fold change” value was -0.505. For RRIRRRPPRLPRPRPRPHACPRP, the “shrunken log2 fold change” value was 0.192. For RRIRSRPPRLPRPRPRPTLIPRP, the “shrunken log2 fold change” value was -0.0693.
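Note: peptides expressed intracellularly from a pBAD plasmid library in pooled LB shake-flask culture, induced with 0.3% L-arabinose, DNA abundance read by NGS, three biological replicates, DESeq2 with apeglm shrinkage.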
